In US20250066436A1:

Key:
[1] = target: AP-PAR1 (PAR1 with an N-terminal alkaline phosphatase tag) (UniProt P25116)
[2] = target: endothelial cell protein C receptor (EPCR) (human) (UniProt Q9UNN8); assay: flow cytometry, labelled active-site blocked protease on endothelial cells
[3] = target: endothelial cell protein C receptor (EPCR) (human) (UniProt Q9UNN8); assay: flow cytometry, fluorescently labelled protease on endothelial cells
[4] = target: endothelial cell protein C receptor (EPCR) (human) (UniProt Q9UNN8); assay: cell-based or functional assay
[5] = target: PAR1^WT/β-11 (PAR1 with the GFP 11th β-strand fused to its C-terminus) (UniProt P25116); assay: cell-based or functional assay
[6] = target: endothelial cell protein C receptor (EPCR) (human) (UniProt Q9UNN8); assay: binding to EPCR; reference is the natural ligands of EPCR
[7] = target: endothelial cell protein C receptor (EPCR) (human) (UniProt Q9UNN8); assay: binding to EPCR on endothelial cells; reference is wild type APC
[8] = target: endothelial cell protein C receptor (EPCR) (human) (UniProt Q9UNN8); assay: binding to EPCR on endothelial cells; reference is wild type
[9] = target: T1, AP-PAR1 (PAR1 with an N-terminal alkaline phosphatase tag), P25116
T1 chain: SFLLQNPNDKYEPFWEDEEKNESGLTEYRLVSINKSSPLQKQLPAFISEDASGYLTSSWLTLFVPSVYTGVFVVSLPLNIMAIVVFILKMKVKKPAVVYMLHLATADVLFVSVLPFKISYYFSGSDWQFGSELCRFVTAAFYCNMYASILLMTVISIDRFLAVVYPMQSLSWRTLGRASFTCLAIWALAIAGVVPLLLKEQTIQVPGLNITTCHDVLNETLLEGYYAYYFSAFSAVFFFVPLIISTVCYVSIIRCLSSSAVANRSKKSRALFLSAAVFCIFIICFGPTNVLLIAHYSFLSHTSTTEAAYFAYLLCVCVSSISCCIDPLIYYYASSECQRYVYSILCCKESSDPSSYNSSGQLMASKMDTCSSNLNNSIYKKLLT

Chain of UniProt Q9UNN8 (Q9UNN8 18-238): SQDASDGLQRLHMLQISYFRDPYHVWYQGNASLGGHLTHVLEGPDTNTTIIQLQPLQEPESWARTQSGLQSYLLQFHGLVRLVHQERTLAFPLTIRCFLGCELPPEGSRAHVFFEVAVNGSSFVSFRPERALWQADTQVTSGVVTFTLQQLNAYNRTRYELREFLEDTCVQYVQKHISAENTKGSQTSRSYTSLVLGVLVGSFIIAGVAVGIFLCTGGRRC

In the case of “wild type activated protein C (APC), proteolytically active”, the “PAR1 proteolysis (release of alkaline phosphatase tag into the supernatant)” value [1] is reported as “APC^CIDR cleaves PAR1 with comparable activity as APC”.

Work on “P-APC^CIDR (APC^CIDRα1.4 active-site blocked with biotinylated PPACK) (enzyme)” yielded a concentration at which cell binding was still clearly visible [2] of less than 0.3 nM and a lowest concentration tested at which bound protease was present [3] of 0.1 nM.

In the case of “APC^CIDRα1.4 (truncated human activated protein C fused to the PfEMP1 CIDRα1.4 HB3var03 domain), proteolytically active (enzyme)”, the β-arrestin 2 recruitment to activated PAR1 in HEK 293T β-arrestin 2 reporter cells [4] is reported as 3 fold, the β-arrestin 2 recruitment to PAR1 (GFP formation by flow cytometry) [5] is reported as greater than 2 fold and the fold higher affinity than its natural ligands [6] is reported as less than 100 fold. For the same molecule, the fold enhanced affinity compared to wild type APC [7] was less than 100 fold and the fold increase in affinity compared to wild type [8] was greater than 100 fold.

B1: APC^CIDRα1.4 (truncated human activated protein C fused to the PfEMP1 CIDRα1.4 HB3var03 domain), proteolytically active (protein)
chain: MRLAVGALLVCAVLGLCLPDCGVECKNETCTPKTVIYPDCGKNEKYEPPGDAKNTEINVINSGDKEGYIFEKLSEFCTNENNENGKNYEQWKCYYDNKKNNNKCKMEINIANSKLKNKITSFDEFFDFWVRKLLIDTIKWETELTYCINNTDVTDCNKCNKNCVCFDKWVKQKEDEWTNIMKLFTNKHDIPKKYYLNINDLFDSFFFQVIYKFNEGEAKWNELKENLKKQIASSKANNGTKDSEAAIKVLFNHIKEIATICKDNNTNEGCGDQCLVLPLEHPCASLCCGHGTCIDGIGSFSCDCRSGWEGRFCQREVSFLNCSLDNGGCTHYCLEEVGWRRCSCAPGYKLGDDLLQCHPAVKFPCGRPWKRMEKKRSHLKRDTEDQEDQVDPRLIDGKMTRRGDSPWQVVLLDSKKKLACGAVLIHPSWVLTAAHCMDESKKLLVRLGEYDLRRWEKWELDLDIKEVFVHPNYSKSTTDNDIALLHLAQPATLSQTIVPICLPDSGLAERELNQAGQETLVTGWGYHSSREKEAKRNRTFVLNFIKIPVVPHNECSEVMSNMVSENMLCAGILGDRQDACEGDSGGPMVASFHGTWFLVGLVSWGEGCGLLHNYGVYTKVSRYLDWIHGHIRDKEAPQKSWAP
In the case of B1, the “PAR1 proteolysis (release of alkaline phosphatase tag into the supernatant)” value [9] is reported as “APC^CIDR cleaves PAR1 with comparable activity as APC”.
